According to article PMC6021343:

Target: Transferrin receptor 1 (human (endogenous in HeLa)) (UniProt P02786)
Sequence (P02786 whole entry): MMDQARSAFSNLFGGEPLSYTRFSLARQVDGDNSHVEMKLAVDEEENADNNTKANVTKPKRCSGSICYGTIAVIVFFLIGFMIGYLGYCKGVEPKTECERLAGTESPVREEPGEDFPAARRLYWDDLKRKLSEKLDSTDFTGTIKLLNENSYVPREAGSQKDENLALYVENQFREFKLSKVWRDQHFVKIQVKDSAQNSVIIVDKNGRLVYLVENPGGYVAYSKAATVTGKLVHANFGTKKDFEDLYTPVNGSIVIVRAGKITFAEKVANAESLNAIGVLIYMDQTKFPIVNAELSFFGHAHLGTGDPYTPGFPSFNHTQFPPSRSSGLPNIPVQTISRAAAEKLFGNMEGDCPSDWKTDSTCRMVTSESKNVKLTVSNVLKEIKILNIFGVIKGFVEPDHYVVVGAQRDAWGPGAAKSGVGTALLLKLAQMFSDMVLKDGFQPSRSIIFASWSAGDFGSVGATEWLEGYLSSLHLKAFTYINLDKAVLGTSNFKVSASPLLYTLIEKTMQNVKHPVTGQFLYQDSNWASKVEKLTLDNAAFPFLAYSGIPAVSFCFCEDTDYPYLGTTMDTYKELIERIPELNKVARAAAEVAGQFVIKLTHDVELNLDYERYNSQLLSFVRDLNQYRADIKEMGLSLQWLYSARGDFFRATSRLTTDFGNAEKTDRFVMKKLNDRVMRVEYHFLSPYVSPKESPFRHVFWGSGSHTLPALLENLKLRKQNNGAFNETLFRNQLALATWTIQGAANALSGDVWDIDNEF

human H-ferritin loaded with about 350 iron ions per cage, sequence (P02794 whole entry): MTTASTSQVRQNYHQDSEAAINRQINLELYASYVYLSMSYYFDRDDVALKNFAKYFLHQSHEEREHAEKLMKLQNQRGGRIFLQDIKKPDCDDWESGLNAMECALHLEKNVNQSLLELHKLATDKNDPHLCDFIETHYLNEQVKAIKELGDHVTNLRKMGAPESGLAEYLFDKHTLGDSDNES

- iron uptake by HeLa cells (ICP-MS of lysates) after 5 h with H-350 1 μM: decrease of uptake when 20 μM Holo-transferrin was added to the medium: 50%
Substance: human H-ferritin loaded with about 350 iron ions per cage (from UniProt P02794 1-183) (natural protein)
